Laboratory results as given in patent US8569455B2, “Cloning, yeast expression, purification and biological activity of the extension region of the soybean 7S globulin alfa' subunit involved in HEP G2 cell cholesterol homeostasis” (Indena S.p.A., priority 2009, dated 2013).
Marks after values point to notes of the source that are not given here.

Experiments:
HepG2 cells [1] = test: Uptake and degradation of 125I-LDL by HepG2 cells; type: cell-based, human; details: for Degradation % / Uptake %: % of LPDS control (100); for Degradation ng125I-LDL/mg cell protein / Uptake ng125I-LDL/mg cell protein: HepG2, 24 h preincubation in 5% LPDS, then 125I-LDL 7.5 mg/L for 5 h, mean ± SD
Text: The established human hepatoma cell line (HepG2) was obtained from American Type Culture Collection (Rockville, Md.). Eagle's minimum essential medium (MEM), fetal calf serum, trypsin-EDTA (1×), penicillin (10^5 U/L), streptomycin (100 g/L), tricine buffer (1 mmol/L, pH 7.4) and non-essential amino acid solutions (100×) were from GIBCO (Madison, Wis.). Petri dishes were from COSTAR (Cambridge, Mass.). Filters were from Millipore (Bedford, Mass.). […] Sephadex G25 columns (PD10) were from Pharmacia Biotech (Uppsala, Sweden). LDH and MTT kit were from Sigma Diagnostics (Milano-Italy). All other chemicals were of analytical grade from Merck (Darmstadt, Germany). […] For experiments designed to evaluate the LDL receptor modulation, cells were seeded in 35 mm plastic dishes (3-5×10^5 cells) and used just before reaching confluence. In all cell culture experiments, the medium was changed every 2-3 days. In order to assess cell viability, culture media from cells exposed to eα′ at different concentrations were tested by methyltetrazolium salts (MTT) assay, essentially as described in ref. 9. Cell enzyme leakage was determined by measuring lactate dehydrogenase (LDH) activity, using a kinetic (LDH/LD) diagnostic kit (Sigma Diagnostics). […] Human lipoprotein deficient serum (LPDS) was prepared as previously described.
Monolayers of cells were preincubated at 37° C. for 24 h in MEM supplemented with 5 g/100 g LPDS to up-regulate the LDL-receptors, in the presence/absence of eα′ at different concentrations listed in Table or 3.5 μmol/L α′ purified subunit or 1.0 μmol/L simvastatin.
Differences in cell uptake and degradation of LDL after cell incubation with eα′ at different concentrations were determined by ANOVA followed by Dunnett's test. Values are expressed as means±SD; P values<0.05 were considered as statistically significant.

LDL-R = details: Hep G2 cells exposed to the peptide at 100 μM; cited from earlier work
HepG2 cells [2] = test: Cell viability by methyltetrazolium salts (MTT) assay; type: cell-based, human; details: all concentrations tested; data not shown
Text: (§1) The established human hepatoma cell line (HepG2) was obtained from American Type Culture Collection (Rockville, Md.). Eagle's minimum essential medium (MEM), fetal calf serum, trypsin-EDTA (1×), penicillin (10^5 U/L), streptomycin (100 g/L), tricine buffer (1 mmol/L, pH 7.4) and non-essential amino acid solutions (100×) were from GIBCO (Madison, Wis.). Petri dishes were from COSTAR (Cambridge, Mass.). Filters were from Millipore (Bedford, Mass.). The Protein Coomassie Plus Protein Assay kit was purchased from Pierce (Rockford, Ill., USA). ^125Iodine, carrier free, in 100 mmol/L NaOH, was from Perkin Elmer Life Sciences (Boston, Mass.). Sephadex G25 columns (PD10) were from Pharmacia Biotech (Uppsala, Sweden). LDH and MTT kit were from Sigma Diagnostics (Milano-Italy). All other chemicals were of analytical grade from Merck (Darmstadt, Germany). Cells were grown in monolayers in 90 mm-diameter Petri dishes, and maintained at 37° C. in a humidified atmosphere of 95% air, 5% CO2 in MEM supplemented with 10% fetal calf serum (FCS), non essential amino acid solution (1%, v/v), penicillin (10^5 U/L), streptomycin (0.1 g/L), tricine buffer (20 mmol/L, pH 7.4), NaHCO3 (24 mmol/L) and sodium pyruvate (0.11 g/L). […] Cell enzyme leakage was determined by measuring lactate dehydrogenase (LDH) activity, using a kinetic (LDH/LD) diagnostic kit (Sigma Diagnostics). […]

HepG2 cells [3] = test: Cell enzyme leakage, lactate dehydrogenase (LDH) activity; type: cell-based, human; details: all concentrations tested; data not shown
Text: as §1

With `CCC(C)(C)C(=O)O[C@H]1C[C@@H](C)C=C2C=C[C@H](C)[C@H](CC[C@@H]3C[C@@H](O)CC(=O)O3)[C@H]21` [Simvastatin, simvastatin, reference compound] the Degradation % (HepG2 cells [1]; 1.0 μmol/L) was 179%, the Uptake % (HepG2 cells [1]; 1.0 μmol/L) was 200% and the “Degradation ng125I-LDL/mg cell protein” value (HepG2 cells [1]; 1.0 μmol/L) was 143 ± 7.9** ng^125 I-LDL/mg cell protein. For the same molecule, the “Uptake ng125I-LDL/mg cell protein” value (HepG2 cells [1]; 1.0 μmol/L) was 188 ± 10** ng^125 I-LDL/mg cell protein.

In the case of “FVVNATSN (Glycine max) [LDL-R transcription stimulating peptide deriving from the 7S globulin β chain]”, the “Increased LDL-R transcription” value (LDL-R) is listed as “+148%”.

B1: 7S α′ subunit: purified full size α′ subunit of the soybean 7S globulin, around 71 kDa, positive control (protein)
chain: VEEEEECEEGQIPRPRPQHPERERQQHGEKEEDEGEQPRPFPFPRPRQPHQEEEHEQKEEHEWHRKEEKHGGKGSEEEQDEREHPRPHQPHQKEEEKHEWQHKQEKHQGKESEEEEEDQDEDEEQDKESQESEGSESQREPRRHKNKNPFHFNSKRFQTLFKNQYGHVRVLQRFNKRSQQLQNLRDYRILEFNSKPNTLLLPHHADADYLIVILNGTAILTLVNNDDRDSYNLQSGDALRVPAGTTFYVVNPDNDENLRMIAGTTFYVVNPDNDENLRMITLAIPVNKPGRFESFFLSSTQAQQSYLQGFSKNILEASYDTKFEEINKVLFGREEGQQQGEERLQESVIVEISKKQIRELSKHAKSSSRKTISSEDKPFNLGSRDPIYSNKLGKLFEITQRNPQLRDLDVFLSVVDMNEGALFLPHFNSKAIVVLVINEGEANIELVGIKEQQQRQQQEEQPLEVRKYRAELSEQDIFVIPAGYPVMVNATSDLNFFAFGINAENNQRNFLAGSKDNVISQIPSQVQELAFPRSAKDIENLIKSQSESYFVDAQPQQKEEGNKGRKGPLSSILRAFY
modifications: Glycine max
notes: purified full size α′ subunit of the soybean 7S globulin, around 71 kDa, positive control
For B1, the Degradation % (HepG2 cells [1]; 3.5 μmol/L) was 160%, the Uptake % (HepG2 cells [1]; 3.5 μmol/L) was 164% and the “Degradation ng125I-LDL/mg cell protein” value (HepG2 cells [1]; 3.5 μmol/L) was 128 ± 4.8* ng^125 I-LDL/mg cell protein. For the same molecule, the “Uptake ng125I-LDL/mg cell protein” value (HepG2 cells [1]; 3.5 μmol/L) was 154 ± 9.1* ng^125 I-LDL/mg cell protein.

B2: eα′: recombinant N-terminal extension region of the soybean 7S globulin α′ subunit, expressed in Pichia pastoris, about 20 kDa, SEQ ID NO: 1 (protein)
chain: AVEEEEECEEGQIPRPRPQHPERERQQHGEKEEDEGEQPRPFPFPRPRQPHQEEEHEQKEEHEWHRKEEKHGGKGSEEEQDEREHPRPHQPHQKEEEKHEWQHKQEKHQGKESEEEEEDQDEDEEQDKESQESEGSESQREP
modifications: Glycine max
With B2 the “Cellular toxicity, MTT assay” value (HepG2 cells [2]) was “At no concentration of eα′ was there any evidence of cellular toxicity”, the Degradation % (HepG2 cells [1]; 0.5 μmol/L) was 125% and the Uptake % (HepG2 cells [1]; 0.5 μmol/L) was 120%. The “Degradation ng125I-LDL/mg cell protein” value (HepG2 cells [1]; 0.5 μmol/L) was 100 ± 10* ng^125 I-LDL/mg cell protein, the “Uptake ng125I-LDL/mg cell protein” value (HepG2 cells [1]; 0.5 μmol/L) was 113 ± 7.1* ng^125 I-LDL/mg cell protein and the Degradation % (HepG2 cells [1]; 1.0 μmol/L) was 148%. The Uptake % (HepG2 cells [1]; 1.0 μmol/L) was 146%, the “Degradation ng125I-LDL/mg cell protein” value (HepG2 cells [1]; 1.0 μmol/L) was 118 ± 9.3* ng^125 I-LDL/mg cell protein and the “Uptake ng125I-LDL/mg cell protein” value (HepG2 cells [1]; 1.0 μmol/L) was 138 ± 9.2* ng^125 I-LDL/mg cell protein. The Degradation % (HepG2 cells [1]; 2.0 μmol/L) was 196%, the Uptake % (HepG2 cells [1]; 2.0 μmol/L) was 179% and the “Degradation ng125I-LDL/mg cell protein” value (HepG2 cells [1]; 2.0 μmol/L) was 157 ± 8.7** ng^125 I-LDL/mg cell protein. The “Uptake ng125I-LDL/mg cell protein” value (HepG2 cells [1]; 2.0 μmol/L) was 169 ± 6.7** ng^125 I-LDL/mg cell protein and the “Cellular toxicity, LDH assay” value (HepG2 cells [3]) was “At no concentration of eα′ was there any evidence of cellular toxicity”.
